Measurements reported in US20030176678A1.

Target: intact IFNAR1 from human cells (IFNAR1 chain of the type I interferon receptor) (human) (UniProt P17181)
Test: cell-based or functional assay

Sequence of UniProt P17181 (P17181 28-557): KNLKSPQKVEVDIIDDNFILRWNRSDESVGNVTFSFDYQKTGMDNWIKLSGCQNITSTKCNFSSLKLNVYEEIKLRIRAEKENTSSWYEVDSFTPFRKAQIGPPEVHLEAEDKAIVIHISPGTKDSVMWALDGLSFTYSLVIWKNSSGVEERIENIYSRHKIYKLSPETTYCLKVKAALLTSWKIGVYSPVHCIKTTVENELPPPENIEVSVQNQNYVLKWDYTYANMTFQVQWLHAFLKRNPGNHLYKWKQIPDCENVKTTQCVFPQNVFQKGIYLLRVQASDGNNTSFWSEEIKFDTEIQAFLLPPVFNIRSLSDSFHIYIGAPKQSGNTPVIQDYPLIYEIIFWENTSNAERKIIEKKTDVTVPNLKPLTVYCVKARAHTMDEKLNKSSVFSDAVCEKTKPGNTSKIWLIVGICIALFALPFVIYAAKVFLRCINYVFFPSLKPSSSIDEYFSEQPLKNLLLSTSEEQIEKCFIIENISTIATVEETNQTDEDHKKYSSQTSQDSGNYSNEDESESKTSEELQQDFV

- reduction in the growth inhibitory effect of IFN-β on myeloma U266S cells by antisense-1 oligonucleotide (Alamar Blue): < 5 fold
Substance: IR1B4/PRMT enzyme (endogenous protein of human myeloma U266S cells) (from UniProt Q99873 11-371)
